Measured values published in publication PMC11027793 (Molecular cell, 2022).
Read-outs that look alike come from different tables or passages of the source. Each block holds one binder with its values, some of them ahead of it. Where no end group is shown, it is not given here. MBP = not defined here

B1: GST-Mios Ring (785–875) (domain or fragment, UniProt Q9NXC5 785-875, looked up)
chain: CALCLINMGTPVSSCPGGTKSDEKVDLSKDKKLAQFNNWFTWCHNCRHGGHAGHMLSWFRDHAECPVSACTCKCMQLDTTGNLVPAETVQP

How the values were obtained:
Test in all cases: pull-down
[1] = molecular target: T1, Flag-WDR24 purified from HEK293T cells (UniProt Q96S15 1-790)
T1 sequence (looked up): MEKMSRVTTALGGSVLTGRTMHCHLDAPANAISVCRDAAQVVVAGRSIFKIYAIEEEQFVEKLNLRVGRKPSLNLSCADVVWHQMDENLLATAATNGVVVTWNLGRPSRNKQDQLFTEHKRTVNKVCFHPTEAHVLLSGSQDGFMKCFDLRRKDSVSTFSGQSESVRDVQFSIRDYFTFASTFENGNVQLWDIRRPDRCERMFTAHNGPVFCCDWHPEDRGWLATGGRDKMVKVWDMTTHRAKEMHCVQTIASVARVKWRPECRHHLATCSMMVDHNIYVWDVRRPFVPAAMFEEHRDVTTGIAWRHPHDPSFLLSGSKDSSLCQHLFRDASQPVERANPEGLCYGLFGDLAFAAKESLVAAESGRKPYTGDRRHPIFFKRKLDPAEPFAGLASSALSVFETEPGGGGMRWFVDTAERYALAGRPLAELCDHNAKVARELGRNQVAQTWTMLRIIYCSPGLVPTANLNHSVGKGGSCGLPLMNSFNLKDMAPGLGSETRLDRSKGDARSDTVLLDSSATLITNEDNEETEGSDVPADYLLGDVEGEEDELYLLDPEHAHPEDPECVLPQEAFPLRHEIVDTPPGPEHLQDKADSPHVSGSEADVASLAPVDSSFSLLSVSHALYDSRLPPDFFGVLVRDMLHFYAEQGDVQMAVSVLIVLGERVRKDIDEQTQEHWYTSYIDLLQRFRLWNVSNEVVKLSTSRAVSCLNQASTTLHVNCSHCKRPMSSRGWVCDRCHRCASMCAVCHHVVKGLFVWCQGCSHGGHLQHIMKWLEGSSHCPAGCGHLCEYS

[2] = molecular target: T2, Flag-WDR59 purified from HEK293T cells (UniProt Q6PJI9 1-974)
T2 sequence (looked up): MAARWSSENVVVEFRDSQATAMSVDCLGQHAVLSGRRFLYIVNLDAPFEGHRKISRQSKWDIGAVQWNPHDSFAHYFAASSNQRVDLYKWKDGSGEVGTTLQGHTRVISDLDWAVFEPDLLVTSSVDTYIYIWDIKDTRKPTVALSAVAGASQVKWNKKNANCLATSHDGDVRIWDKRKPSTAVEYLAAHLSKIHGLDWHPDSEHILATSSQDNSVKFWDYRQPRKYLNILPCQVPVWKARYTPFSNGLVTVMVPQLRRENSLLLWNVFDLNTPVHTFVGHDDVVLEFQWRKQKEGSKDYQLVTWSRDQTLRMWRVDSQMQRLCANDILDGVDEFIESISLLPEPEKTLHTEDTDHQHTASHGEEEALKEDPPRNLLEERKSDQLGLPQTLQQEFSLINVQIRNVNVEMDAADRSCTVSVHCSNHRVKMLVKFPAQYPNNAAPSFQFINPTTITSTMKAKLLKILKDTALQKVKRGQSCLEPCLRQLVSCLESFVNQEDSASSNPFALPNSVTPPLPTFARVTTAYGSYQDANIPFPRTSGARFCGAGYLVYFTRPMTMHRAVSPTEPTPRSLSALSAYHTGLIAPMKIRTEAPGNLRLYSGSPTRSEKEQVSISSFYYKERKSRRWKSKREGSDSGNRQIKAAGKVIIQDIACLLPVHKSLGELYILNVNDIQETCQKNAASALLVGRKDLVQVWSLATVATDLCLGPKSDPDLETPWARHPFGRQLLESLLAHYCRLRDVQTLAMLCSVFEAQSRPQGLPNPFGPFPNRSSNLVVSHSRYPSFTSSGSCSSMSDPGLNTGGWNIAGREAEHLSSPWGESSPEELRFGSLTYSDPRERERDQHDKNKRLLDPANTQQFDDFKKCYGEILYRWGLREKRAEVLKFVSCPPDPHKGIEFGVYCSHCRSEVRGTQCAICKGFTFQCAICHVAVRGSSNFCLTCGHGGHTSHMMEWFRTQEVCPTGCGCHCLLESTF

[3] = molecular target: T1, Flag-WDR24 purified from HEK293T cells; remark: listed apart in the source
[4] = molecular target: T3, GST-WDR24 wild-type (full-length) (UniProt Q96S15 1-790)
T3 sequence (looked up): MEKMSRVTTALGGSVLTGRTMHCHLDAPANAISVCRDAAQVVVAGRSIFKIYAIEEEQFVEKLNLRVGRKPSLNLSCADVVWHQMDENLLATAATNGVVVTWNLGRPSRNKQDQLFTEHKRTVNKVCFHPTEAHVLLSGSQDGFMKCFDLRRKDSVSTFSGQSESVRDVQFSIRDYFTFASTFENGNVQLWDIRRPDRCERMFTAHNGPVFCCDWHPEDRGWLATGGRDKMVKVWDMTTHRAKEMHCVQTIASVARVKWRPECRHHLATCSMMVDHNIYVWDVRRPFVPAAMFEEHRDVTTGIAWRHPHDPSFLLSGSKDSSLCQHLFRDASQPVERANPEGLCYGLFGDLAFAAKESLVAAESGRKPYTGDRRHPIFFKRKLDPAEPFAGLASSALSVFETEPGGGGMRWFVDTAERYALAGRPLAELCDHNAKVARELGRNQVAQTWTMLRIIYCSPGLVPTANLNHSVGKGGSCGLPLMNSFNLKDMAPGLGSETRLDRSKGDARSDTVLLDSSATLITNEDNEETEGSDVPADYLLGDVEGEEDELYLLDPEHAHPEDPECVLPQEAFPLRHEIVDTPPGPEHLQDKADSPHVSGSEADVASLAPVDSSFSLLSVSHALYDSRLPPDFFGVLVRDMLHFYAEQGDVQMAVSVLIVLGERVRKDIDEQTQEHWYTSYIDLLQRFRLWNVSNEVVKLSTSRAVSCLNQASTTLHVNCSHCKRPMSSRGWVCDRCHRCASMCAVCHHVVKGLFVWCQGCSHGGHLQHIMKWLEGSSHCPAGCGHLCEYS

GST-Mios Ring (785–875) = molecular target: B1
GST-WDR59 wild-type = molecular target: T4, GST-WDR59 wild-type (UniProt Q6PJI9 1-974)
T4 sequence (looked up): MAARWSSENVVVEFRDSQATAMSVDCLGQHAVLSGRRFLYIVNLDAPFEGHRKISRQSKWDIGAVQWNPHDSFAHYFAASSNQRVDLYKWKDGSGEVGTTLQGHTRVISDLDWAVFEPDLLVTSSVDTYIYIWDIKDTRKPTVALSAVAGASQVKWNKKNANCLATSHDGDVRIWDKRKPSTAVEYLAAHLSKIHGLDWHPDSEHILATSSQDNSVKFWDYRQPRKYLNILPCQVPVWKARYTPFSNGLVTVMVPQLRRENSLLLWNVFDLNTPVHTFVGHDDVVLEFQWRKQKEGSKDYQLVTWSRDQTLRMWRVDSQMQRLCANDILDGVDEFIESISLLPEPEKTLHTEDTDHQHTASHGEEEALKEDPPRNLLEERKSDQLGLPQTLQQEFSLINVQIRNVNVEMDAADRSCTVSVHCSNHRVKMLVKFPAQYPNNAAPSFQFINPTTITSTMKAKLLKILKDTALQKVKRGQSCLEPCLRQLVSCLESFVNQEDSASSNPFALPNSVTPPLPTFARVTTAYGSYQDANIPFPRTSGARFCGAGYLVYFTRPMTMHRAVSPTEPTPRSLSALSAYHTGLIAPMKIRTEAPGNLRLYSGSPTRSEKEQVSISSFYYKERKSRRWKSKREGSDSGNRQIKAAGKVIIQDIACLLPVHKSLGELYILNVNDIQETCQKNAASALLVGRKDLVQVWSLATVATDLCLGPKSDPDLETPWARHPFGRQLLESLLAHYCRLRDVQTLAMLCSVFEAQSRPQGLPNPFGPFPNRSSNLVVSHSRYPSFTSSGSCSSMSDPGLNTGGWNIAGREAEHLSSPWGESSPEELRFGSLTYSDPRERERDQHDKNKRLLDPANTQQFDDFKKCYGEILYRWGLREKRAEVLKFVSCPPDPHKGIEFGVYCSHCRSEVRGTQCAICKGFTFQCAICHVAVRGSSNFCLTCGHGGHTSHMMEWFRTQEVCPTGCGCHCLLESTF

Binder: B1
binding result [1]: binds
binding result [2]: binds

B2: His6-tag UBE2D3 (enzyme)
chain: not shown
binding result [3]: binds
binding result [4]: binds

B3: Flag-Sestrin2 (pRK5-FLAG-Sestrin2) (natural protein, UniProt P58004 1-480, looked up)
chain: MIVADSECRAELKDYLRFAPGGVGDSGPGEEQRESRARRGPRGPSAFIPVEEVLREGAESLEQHLGLEALMSSGRVDNLAVVMGLHPDYFTSFWRLHYLLLHTDGPLASSWRHYIAIMAAARHQCSYLVGSHMAEFLQTGGDPEWLLGLHRAPEKLRKLSEINKLLAHRPWLITKEHIQALLKTGEHTWSLAELIQALVLLTHCHSLSSFVFGCGILPEGDADGSPAPQAPTPPSEQSSPPSRDPLNNSGGFESARDVEALMERMQQLQESLLRDEGTSQEEMESRFELEKSESLLVTPSADILEPSPHPDMLCFVEDPTFGYEDFTRRGAQAPPTFRAQDYTWEDHGYSLIQRLYPEGGQLLDEKFQAAYSLTYNTIAMHSGVDTSVLRRAIWNYIHCVFGIRYDDYDYGEVNQLLERNLKVYIKTVACYPEKTTRRMYNLFWRHFRHSEKVHVNLLLLEARMQAALLYALRAITRYMT
binding result [4]: binds

Second part, the binder after the results:

binding result (GST-Mios Ring (785–875)): binds
B4: His-MBP-WDR59 Ring (924–974) (domain or fragment, UniProt Q6PJI9 924-974, looked up)
chain: {His-MBP}-CAICHVAVRGSSNFCLTCGHGGHTSHMMEWFRTQEVCPTGCGCHCLLESTF
modifications: cysteine pairing not given here; reading uncertain

binding result (GST-Mios Ring (785–875)): binds
Binder: {His-MBP}-CAVCHHVVKGLFVWCQGCSHGGHLQHIMKWLEGSSHCPAGCGHLCEYS (domain or fragment, UniProt Q96S15 743-790, looked up, cysteine pairing not given here; reading uncertain) [His-MBP-WDR24 Ring (743–790)]

binding result (GST-WDR59 wild-type): binds
B5: Flag-Mios purified from HEK293T cells (natural protein, UniProt Q9NXC5 1-875, looked up)
chain: MSGTKPDILWAPHHVDRFVVCDSELSLYHVESTVNSELKAGSLRLSEDSAATLLSINSDTPYMKCVAWYLNYDPECLLAVGQANGRVVLTSLGQDHNSKFKDLIGKEFVPKHARQCNTLAWNPLDSNWLAAGLDKHRADFSVLIWDICSKYTPDIVPMEKVKLSAGETETTLLVTKPLYELGQNDACLSLCWLPRDQKLLLAGMHRNLAIFDLRNTSQKMFVNTKAVQGVTVDPYFHDRVASFYEGQVAIWDLRKFEKPVLTLTEQPKPLTKVAWCPTRTGLLATLTRDSNIIRLYDMQHTPTPIGDETEPTIIERSVQPCDNYIASFAWHPTSQNRMIVVTPNRTMSDFTVFERISLAWSPITSLMWACGRHLYECTEEENDNSLEKDIATKMRLRALSRYGLDTEQVWRNHILAGNEDPQLKSLWYTLHFMKQYTEDMDQKSPGNKGSLVYAGIKSIVKSSLGMVESSRHNWSGLDKQSDIQNLNEERILALQLCGWIKKGTDVDVGPFLNSLVQEGEWERAAAVALFNLDIRRAIQILNEGASSEKGDLNLNVVAMALSGYTDEKNSLWREMCSTLRLQLNNPYLCVMFAFLTSETGSYDGVLYENKVAVRDRVAFACKFLSDTQLNRYIEKLTNEMKEAGNLEGILLTGLTKDGVDLMESYVDRTGDVQTASYCMLQGSPLDVLKDERVQYWIENYRNLLDAWRFWHKRAEFDIHRSKLDPSSKPLAQVFVSCNFCGKSISYSCSAVPHQGRGFSQYGVSGSPTKSKVTSCPGCRKPLPRCALCLINMGTPVSSCPGGTKSDEKVDLSKDKKLAQFNNWFTWCHNCRHGGHAGHMLSWFRDHAECPVSACTCKCMQLDTTGNLVPAETVQP

binding result [2]: binds
B6: GST-fusion protein of full-length wild-type Mios (natural protein, UniProt Q9NXC5 1-875, looked up)
chain: MSGTKPDILWAPHHVDRFVVCDSELSLYHVESTVNSELKAGSLRLSEDSAATLLSINSDTPYMKCVAWYLNYDPECLLAVGQANGRVVLTSLGQDHNSKFKDLIGKEFVPKHARQCNTLAWNPLDSNWLAAGLDKHRADFSVLIWDICSKYTPDIVPMEKVKLSAGETETTLLVTKPLYELGQNDACLSLCWLPRDQKLLLAGMHRNLAIFDLRNTSQKMFVNTKAVQGVTVDPYFHDRVASFYEGQVAIWDLRKFEKPVLTLTEQPKPLTKVAWCPTRTGLLATLTRDSNIIRLYDMQHTPTPIGDETEPTIIERSVQPCDNYIASFAWHPTSQNRMIVVTPNRTMSDFTVFERISLAWSPITSLMWACGRHLYECTEEENDNSLEKDIATKMRLRALSRYGLDTEQVWRNHILAGNEDPQLKSLWYTLHFMKQYTEDMDQKSPGNKGSLVYAGIKSIVKSSLGMVESSRHNWSGLDKQSDIQNLNEERILALQLCGWIKKGTDVDVGPFLNSLVQEGEWERAAAVALFNLDIRRAIQILNEGASSEKGDLNLNVVAMALSGYTDEKNSLWREMCSTLRLQLNNPYLCVMFAFLTSETGSYDGVLYENKVAVRDRVAFACKFLSDTQLNRYIEKLTNEMKEAGNLEGILLTGLTKDGVDLMESYVDRTGDVQTASYCMLQGSPLDVLKDERVQYWIENYRNLLDAWRFWHKRAEFDIHRSKLDPSSKPLAQVFVSCNFCGKSISYSCSAVPHQGRGFSQYGVSGSPTKSKVTSCPGCRKPLPRCALCLINMGTPVSSCPGGTKSDEKVDLSKDKKLAQFNNWFTWCHNCRHGGHAGHMLSWFRDHAECPVSACTCKCMQLDTTGNLVPAETVQP
